Source: PMC2120623

B1: beta'-adaptin in pGAD424 (two-hybrid activator fusion) (natural protein)
chain: MTDSKYFTTTKKGEIFELKAELNSDKKEKKKEAVKKVIASMTVGKDVSALFPDVVNCMQTDNLELKKLVYLYLMNYAKSQPDMAIMAVNTFVKDCEDPNPLIRALAVRTMGCIRVDKITEYLCEPLRKCLKDEDPYVRKTAAVCVAKLHDINAQLVEDQGFLDTLKDLISDSNPMVVANRVAALSEIAESHPSSNLLDLKAQSINKLLTALNECTEWAQIFILDCLGNYMPKDDREAQSICERVTPRLSHANSAVVLSAVKVLMKFMEMLSKDLDYYATLLKKLAPPLVTLLSAEPEPQYVPLRNINLIVQKRPEILKHEMKVFFVKYNDPIYVKLEKLDIMIRLASQANIAQVLAELKEYATEVDVDFVRKAVRAIGRCAIKVEQSAERCVSTLLDLIQTKVNYVVQEAIVVIKDIFRKYPNKYESVIATLCENLDSLDEPEARAAMIWIVGEYAERIDNADELLESFLDGFHDESTQVQLQLLTAIVKLFLKKPTETQELVQQVLSLATQDSDNPDLRDRGYIYWRLLSTDPVAAKEVVLAEKPLISEETDLIEPTLLDELICYIGTLASVYHKPPNAFVEGGRGVVHKSLPPRTASSESTESPEAAPAGAPASDQPDVIPAQGDLLGDLLNLDLGPPVSGPPLAASSVQMGAVDLLGGGLDSLMGDEPEGIGDSNFGAPPASVAAAAPARLGAPVSSGLSDLFDLTSGVGTLSGSYVAPKAVWLPAMKAKGLEISGTFTRQVGSISMDLQLTNKALQVMTDFAIQFNRNSFGLAPAAPLQVHAPLSPNQTVEISLPLNTVGSVMKMEPLNNLQVAVKNNIDVFYFSTLYPLHVLFVEDGKMDRQMFLATWKDIPNENEAQFQIRDCPLNTEAASSKLQSSNIFTVAKRTVEGQDMLYQSLKLTNGIWVLAELRIQPGNPSFTLSLKCRAPEVSQHDIQAYETILKN

Tests used:
Experiment in all cases: two-hybrid
[1] = target: αγα chimera in pGBT9 (two-hybrid GAL4 DNA binding domain fusion) (not stated | bovine) (UniProt P17427)
[2] = target: AP47 in pGBT9 (two-hybrid GAL4 DNA binding domain fusion) (UniProt P35585)
[3] = target: AP50 in pGBT9 (two-hybrid GAL4 DNA binding domain fusion) (UniProt P84092)
Sequence of UniProt P84092 (P84092 whole entry, the tested form may be a part): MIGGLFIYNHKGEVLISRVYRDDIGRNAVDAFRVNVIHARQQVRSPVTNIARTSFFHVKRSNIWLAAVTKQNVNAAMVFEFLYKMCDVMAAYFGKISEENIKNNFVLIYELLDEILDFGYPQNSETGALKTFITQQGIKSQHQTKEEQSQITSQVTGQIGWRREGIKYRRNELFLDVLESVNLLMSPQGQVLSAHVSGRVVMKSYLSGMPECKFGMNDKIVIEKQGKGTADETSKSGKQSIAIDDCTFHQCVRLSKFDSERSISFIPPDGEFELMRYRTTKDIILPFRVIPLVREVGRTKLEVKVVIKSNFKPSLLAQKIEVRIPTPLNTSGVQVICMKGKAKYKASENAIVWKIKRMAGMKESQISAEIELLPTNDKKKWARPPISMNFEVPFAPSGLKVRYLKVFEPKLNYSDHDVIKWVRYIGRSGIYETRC

Sequence of UniProt P17427 (P17427 whole entry, change not shown, the tested form may be a part): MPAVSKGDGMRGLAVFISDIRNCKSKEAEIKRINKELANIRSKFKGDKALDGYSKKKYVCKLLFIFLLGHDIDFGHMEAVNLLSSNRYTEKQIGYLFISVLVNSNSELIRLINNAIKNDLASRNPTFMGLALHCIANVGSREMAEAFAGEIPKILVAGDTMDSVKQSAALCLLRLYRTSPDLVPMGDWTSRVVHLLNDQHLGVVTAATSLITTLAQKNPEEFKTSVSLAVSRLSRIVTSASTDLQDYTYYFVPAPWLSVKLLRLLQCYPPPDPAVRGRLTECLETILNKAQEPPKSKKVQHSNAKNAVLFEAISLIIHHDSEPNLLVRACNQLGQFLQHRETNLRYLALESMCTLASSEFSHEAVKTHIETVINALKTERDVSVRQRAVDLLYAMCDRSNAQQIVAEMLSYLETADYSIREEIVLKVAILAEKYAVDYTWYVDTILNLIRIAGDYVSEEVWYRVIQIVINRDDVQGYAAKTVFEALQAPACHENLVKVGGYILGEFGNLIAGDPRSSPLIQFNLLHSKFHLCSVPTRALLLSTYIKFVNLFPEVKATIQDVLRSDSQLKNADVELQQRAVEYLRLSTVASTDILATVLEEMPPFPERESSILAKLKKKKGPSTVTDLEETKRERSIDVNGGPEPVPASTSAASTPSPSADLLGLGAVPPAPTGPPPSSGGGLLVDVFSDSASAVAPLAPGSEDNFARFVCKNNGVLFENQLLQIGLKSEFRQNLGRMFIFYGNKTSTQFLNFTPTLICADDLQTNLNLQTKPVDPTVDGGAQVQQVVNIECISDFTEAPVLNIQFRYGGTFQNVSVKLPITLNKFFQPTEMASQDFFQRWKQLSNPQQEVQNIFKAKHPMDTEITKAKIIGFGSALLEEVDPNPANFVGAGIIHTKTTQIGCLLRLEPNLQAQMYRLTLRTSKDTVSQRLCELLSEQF
Sequence of UniProt P35585 (P35585 whole entry, the tested form may be a part): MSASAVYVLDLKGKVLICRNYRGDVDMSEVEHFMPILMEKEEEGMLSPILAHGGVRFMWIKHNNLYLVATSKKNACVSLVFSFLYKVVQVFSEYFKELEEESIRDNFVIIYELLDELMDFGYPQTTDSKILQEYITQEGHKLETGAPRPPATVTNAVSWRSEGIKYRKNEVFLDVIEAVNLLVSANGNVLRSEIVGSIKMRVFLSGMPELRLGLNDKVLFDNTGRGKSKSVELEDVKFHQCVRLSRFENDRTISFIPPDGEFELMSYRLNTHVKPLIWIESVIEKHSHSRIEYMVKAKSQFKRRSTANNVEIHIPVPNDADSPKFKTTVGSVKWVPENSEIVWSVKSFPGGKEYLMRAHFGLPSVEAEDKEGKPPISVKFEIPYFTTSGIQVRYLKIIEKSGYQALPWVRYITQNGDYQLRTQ

Row | Molecule | beta-galactosidase units [1] [units] | beta-galactosidase units [2] [units] | beta-galactosidase units [3] [units]
1 | beta-adaptin in pGAD424 (two-hybrid activator fusion) (from UniProt P62944 1-937) (natural protein) | 38.6 | 25.4 | 102
2 | B1 | 22.3 | – | –
